Results taken from FireProtDB (doi:10.1021/bi00116a007).

B1: Aspartate aminotransferase, P00509 (parent)
chain: MFENITAAPADPILGLADLFRADERPGKINLGIGVYKDETGKTPVLTSVKKAEQYLLENETTKNYLGIDGIPEFGRCTQELLFGKGSALINDKRARTAQTPGGTGALRVAADFLAKNTSVKRVWVSNPSWPNHKSVFNSAGLEVREYAYYDAENHTLDFDALINSLNEAQAGDVVLFHGCCHNPTGIDPTLEQWQTLAQLSVEKGWLPLFDFAYQGFARGLEEDAEGLRAFAAMHKELIVASSYSKNFGLYNERVGACTLVAADSETVDRAFSQMKAAIRANYSNPPAHGASVVATILSNDALRAIWEQELTDMRQRIQRMRQLFVNTLQEKGANRDFSFIIKQNGMFSFSGLTKEQVLRLREEFGVYAVASGRVNVAGMTPDNMAPLCEAIVAVL

Variants of: B1
Conditions: Escherichia coli (strain K12); pH 7.5; 25 °C; Urea; DSC; potassium-HEPES 40 mM; reversible: yes; structure 1AMQ; whole UniProt chain shown

With MFENITAAPADPILGLADLFRADERPGKINLGIGVYKDETGKTPVLTSVKKAEQYLLENETTKNYLGIDGIPEFGRATQELLFGKGSALINDKRARTAQTPGGTGALRVAADFLAKNTSVKRVWVSNPSWPNHKSVFNSAGLEVREYAYYDAENHTLDFDALINSLNEAQAGDVVLFHGCCHNPTGIDPTLEQWQTLAQLSVEKGWLPLFDFAYQGFARGLEEDAEGLRAFAAMHKELIVASSYSKNFGLYNERVGACTLVAADSETVDRAFSQMKAAIRANYSNPPAHGASVVATILSNDALRAIWEQELTDMRQRIQRMRQLFVNTLQEKGANRDFSFIIKQNGMFSFSGLTKEQVLRLREEFGVYAVASGRVNVAGMTPDNMAPLCEAIVAVL [C77A] the “ddG of mutation (higher = less stable)” value was 1.3 kcal/mol, the denaturant m value was 2.13 kcal/mol/M and the “denaturant midpoint (higher = more stable)” value (from here on “denaturant midpoint”) was 4.06 M. The unfolding free energy was 8.67 kcal/mol.

In the case of MFENITAAPADPILGLADLFRADERPGKINLGIGVYKDETGKTPVLTSVKKAEQYLLENETTKNYLGIDGIPEFGRATQELLFGKGSALINDKRARTAQTPGGTGALRVAADFLAKNTSVKRVWVSNPSWPNHKSVFNSAGLEVREYAYYDAENHTLDFDALINSLNEAQAGDVVLFHGAAHNPTGIDPTLEQWQTLAQLSVEKGWLPLFDFAYQGFARGLEEDAEGLRAFAAMHKELIVASSYSKNFGLYNERVGAATLVAADSETVDRAFSQMKAAIRANYSNPPAHGASVVATILSNDALRAIWEQELTDMRQRIQRMRQLFVNTLQEKGANRDFSFIIKQNGMFSFSGLTKEQVLRLREEFGVYAVASGRVNVAGMTPDNMAPLAEAIVAVL [C77A C180A C181A C258A C389A], the “ddG of mutation (higher = less stable)” value is reported as 1 kcal/mol, the denaturant m value is reported as 2.83 kcal/mol/M and the “denaturant midpoint” value is reported as 3.16 M. For the same variant, the unfolding free energy was 8.92 kcal/mol.

In the case of MFENITAAPADPILGLADLFRADERPGKINLGIGVYKDETGKTPVLTSVKKAEQYLLENETTKNYLGIDGIPEFGRCTQELLFGKGSALINDKRARTAQTPGGTGALRVAADFLAKNTSVKRVWVSNPSWPNHKSVFNSAGLEVREYAYYDAENHTLDFDALINSLNEAQAGDVVLFHGACHNPTGIDPTLEQWQTLAQLSVEKGWLPLFDFAYQGFARGLEEDAEGLRAFAAMHKELIVASSYSKNFGLYNERVGACTLVAADSETVDRAFSQMKAAIRANYSNPPAHGASVVATILSNDALRAIWEQELTDMRQRIQRMRQLFVNTLQEKGANRDFSFIIKQNGMFSFSGLTKEQVLRLREEFGVYAVASGRVNVAGMTPDNMAPLCEAIVAVL [C180A], the “ddG of mutation (higher = less stable)” value is reported as 2.2 kcal/mol, the denaturant m value is reported as 2 kcal/mol/M and the “denaturant midpoint” value is reported as 3.87 M. For the same variant, the unfolding free energy was 7.74 kcal/mol.

For MFENITAAPADPILGLADLFRADERPGKINLGIGVYKDETGKTPVLTSVKKAEQYLLENETTKNYLGIDGIPEFGRCTQELLFGKGSALINDKRARTAQTPGGTGALRVAADFLAKNTSVKRVWVSNPSWPNHKSVFNSAGLEVREYAYYDAENHTLDFDALINSLNEAQAGDVVLFHGSCHNPTGIDPTLEQWQTLAQLSVEKGWLPLFDFAYQGFARGLEEDAEGLRAFAAMHKELIVASSYSKNFGLYNERVGACTLVAADSETVDRAFSQMKAAIRANYSNPPAHGASVVATILSNDALRAIWEQELTDMRQRIQRMRQLFVNTLQEKGANRDFSFIIKQNGMFSFSGLTKEQVLRLREEFGVYAVASGRVNVAGMTPDNMAPLCEAIVAVL [C180S], the “ddG of mutation (higher = less stable)” value was 1.8 kcal/mol, the denaturant m value was 2.38 kcal/mol/M and the “denaturant midpoint” value was 3.41 M. The unfolding free energy was 8.12 kcal/mol.

With MFENITAAPADPILGLADLFRADERPGKINLGIGVYKDETGKTPVLTSVKKAEQYLLENETTKNYLGIDGIPEFGRCTQELLFGKGSALINDKRARTAQTPGGTGALRVAADFLAKNTSVKRVWVSNPSWPNHKSVFNSAGLEVREYAYYDAENHTLDFDALINSLNEAQAGDVVLFHGCAHNPTGIDPTLEQWQTLAQLSVEKGWLPLFDFAYQGFARGLEEDAEGLRAFAAMHKELIVASSYSKNFGLYNERVGACTLVAADSETVDRAFSQMKAAIRANYSNPPAHGASVVATILSNDALRAIWEQELTDMRQRIQRMRQLFVNTLQEKGANRDFSFIIKQNGMFSFSGLTKEQVLRLREEFGVYAVASGRVNVAGMTPDNMAPLCEAIVAVL [C181A] the “ddG of mutation (higher = less stable)” value was 1.6 kcal/mol, the denaturant m value was 2.35 kcal/mol/M and the “denaturant midpoint” value was 3.53 M. The unfolding free energy was 8.32 kcal/mol.

In the case of MFENITAAPADPILGLADLFRADERPGKINLGIGVYKDETGKTPVLTSVKKAEQYLLENETTKNYLGIDGIPEFGRCTQELLFGKGSALINDKRARTAQTPGGTGALRVAADFLAKNTSVKRVWVSNPSWPNHKSVFNSAGLEVREYAYYDAENHTLDFDALINSLNEAQAGDVVLFHGCCHNPTGIDPTLEQWQTLAQLSVEKGWLPLFDFAYQGFARGLEEDAEGLRAFAAMHKELIVASSYSKNFGLYNERVGAATLVAADSETVDRAFSQMKAAIRANYSNPPAHGASVVATILSNDALRAIWEQELTDMRQRIQRMRQLFVNTLQEKGANRDFSFIIKQNGMFSFSGLTKEQVLRLREEFGVYAVASGRVNVAGMTPDNMAPLCEAIVAVL [C258A], the “ddG of mutation (higher = less stable)” value is reported as 2.5 kcal/mol, the denaturant m value is reported as 2.14 kcal/mol/M and the “denaturant midpoint” value is reported as 3.51 M. It also gave an unfolding free energy of 7.5 kcal/mol.

With MFENITAAPADPILGLADLFRADERPGKINLGIGVYKDETGKTPVLTSVKKAEQYLLENETTKNYLGIDGIPEFGRCTQELLFGKGSALINDKRARTAQTPGGTGALRVAADFLAKNTSVKRVWVSNPSWPNHKSVFNSAGLEVREYAYYDAENHTLDFDALINSLNEAQAGDVVLFHGCCHNPTGIDPTLEQWQTLAQLSVEKGWLPLFDFAYQGFARGLEEDAEGLRAFAAMHKELIVASSYSKNFGLYNERVGACTLVAADSETVDRAFSQMKAAIRANYSNPPAHGASVVATILSNDALRAIWEQELTDMRQRIQRMRQLFVNTLQEKGANRDFSFIIKQNGMFSFSGLTKEQVLRLREEFGVYAVASGRVNVAGMTPDNMAPLAEAIVAVL [C389A] the “ddG of mutation (higher = less stable)” value was -3.2 kcal/mol, the denaturant m value was 3.87 kcal/mol/M and the “denaturant midpoint” value was 3.41 M. The unfolding free energy was 13.2 kcal/mol.
